One substance from article PMC4489804 can be followed below.

In this experiment the target is DCP1-CFP (Arabidopsis thaliana) (UniProt Q9SJF3). The experiment in a line: FRET or BRET; FRET acceptor photobleaching in transiently transfected Arabidopsis leaf epidermis cells; DCP1-CFP donor, YFP-gSPI or free YFP acceptor, 35S promoter; whole cells and stationary P-bodies measured.
Chain of UniProt Q9SJF3 (Q9SJF3 whole entry): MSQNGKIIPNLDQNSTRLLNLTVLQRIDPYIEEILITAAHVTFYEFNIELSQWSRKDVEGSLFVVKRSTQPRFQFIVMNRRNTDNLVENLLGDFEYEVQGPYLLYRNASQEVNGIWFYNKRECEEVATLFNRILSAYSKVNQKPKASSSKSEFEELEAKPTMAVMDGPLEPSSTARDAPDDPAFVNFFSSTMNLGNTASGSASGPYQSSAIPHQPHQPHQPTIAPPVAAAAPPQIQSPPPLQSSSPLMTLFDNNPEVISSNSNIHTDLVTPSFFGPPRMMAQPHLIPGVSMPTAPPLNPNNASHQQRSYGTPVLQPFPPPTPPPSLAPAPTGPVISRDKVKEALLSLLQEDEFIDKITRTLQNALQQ

The substance “YFP-tagged full-length genomic SPI, F4HZB2 1-3601” gave an FRET efficiency (FRETE), immobile P-bodies of 23% and an FRET efficiency (FRETE), whole cells of 27%.
